Assay results from the supplement of paper PMC10567573.

B1: ATL3 (parent)
chain: YGLQGGMAFLDKRLQVKEHQHEEI
B2: PBXIP1 (parent)
chain: FGEDGIFRHDRLRFRDFVDALEDS

Variants of: B1
Experiment: protein stability index of a GFP-peptide fusion (GPS, HEK-293T) (PSI 1-6); higher = more stable
Conditions: c terminus: a fixed tail appended
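Note: lentivirally expressed fusions sorted by FACS into six bins by GFP to DsRed ratio, PSI derived from sequencing read proportions per bin multiplied by bin number.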

Row | Variant | protein stability index
1 | K17S | 1.8
2 | K17I | 2.51
3 | K17N | 3.3
4 | A8K | 1.71
5 | E22D | 2.48
6 | E22K | 1.86
7 | R13E | 1.59
8 | R13V | 2.14
9 | R13Q | 1.86
10 | Q15F | 2.65
11 | Q15T | 2.04
12 | Q15E | 1.76
13 | Q15L | 2.21
14 | Q15K | 2.54
15 | Q15M | 3.24
16 | Y1V | 3.92
17 | Y1H | 3.51
18 | Y1N | 4.53
19 | Y1R | 4.07
20 | G6R | 2.85
21 | G6V | 2.03
22 | G6N | 2.32
23 | G6S | 2.13
24 | L10D | 4.11
25 | L10P | 3.39

Row | Variant | protein stability index
26 | L10K | 1.62
27 | Q4I | 2.86
28 | Q4R | 2.67
29 | Q4T | 1.89
30 | Q4E | 1.92
31 | Q4D | 2.18
32 | M7K | 3.76
33 | M7L | 2.66
34 | M7I | 2.28
35 | K12H | 2.03
36 | K12S | 2.26
37 | K12M | 2.89
38 | E23F | 2.43
39 | E23Q | 2.9
40 | E23C | 3.04
41 | Q20V | 2.99
42 | Q20W | 1.55
43 | Q20H | 3.12
44 | Q20C | 3.54
45 | F9M | 4.25
46 | F9H | 4.06
47 | F9K | 4.4
48 | G2M | 2.39
49 | G2C | 1.82
50 | G2R | 3.49

Row | Variant | protein stability index
51 | G2L | 1.93
52 | G2F | 2.31
53 | V16F | 2.5
54 | E18I | 3.67
55 | E18W | 3.87
56 | I24E | 2.29
57 | L3W | 3.64
58 | L3Y | 2.99
59 | H21Y | 2.55
60 | H21T | 3.49
61 | H21P | 2.33
62 | H21S | 3.88
63 | L14D | 2.16
64 | L14P | 3.04
65 | H19V | 3.03
66 | H19S | 2.01
67 | H19N | 2.6
68 | H19M | 2.82
69 | H19G | 2.65
70 | G5K | 2.4
71 | G5H | 2.5
72 | D11H | 1.61
73 | D11V | 2.84
74 | D11F | 1.78

Variants of: B2
Experiment: as above
Conditions: c terminus: a fixed tail appended

Row | Variant | protein stability index
75 | L21D | 3.68
76 | L21E | 3.67
77 | L21I | 3.07
78 | L21W | 2.57
79 | L21A | 3.32
80 | L21H | 3
81 | L21R | 3.01
82 | L21Q | 3.57
83 | L21P | 3.65
84 | L21F | 2.73
85 | L21N | 3.73
86 | L21Y | 3.18
87 | L21K | 3.3
88 | L21C | 3.48
89 | L21M | 3.12
90 | L21T | 3.13
91 | L21V | 2.94
92 | L21S | 3.24
93 | L21G | 2.97
94 | S24A | 2.21
95 | S24L | 2.32
96 | S24Y | 1.78
97 | S24N | 3.15
98 | S24T | 2.85

Row | Variant | protein stability index
99 | S24F | 1.8
100 | S24V | 2.43
101 | S24G | 2.32
102 | S24E | 2.24
103 | S24D | 3.5
104 | S24M | 2.2
105 | S24H | 2.66
106 | S24W | 1.93
107 | S24P | 2.51
108 | S24I | 2.29
109 | S24R | 2.76
110 | S24K | 3.08
111 | S24Q | 2.74
112 | S24C | 3.48
113 | D23H | 2.34
114 | D23N | 2.94
115 | D23S | 2.22
116 | D23C | 2.21
117 | D23I | 1.93
118 | D23R | 1.98
119 | D23T | 2.55
120 | D23E | 2.61
121 | D23W | 1.84
122 | D23Q | 2.82

Row | Variant | protein stability index
123 | D23K | 2.23
124 | D23V | 2.29
125 | D23A | 2.22
126 | D23G | 3.02
127 | D23P | 2.35
128 | D23F | 1.92
129 | D23L | 2.42
130 | D23Y | 2.62
131 | D23M | 2.32
132 | A20P | 3.06
133 | A20Y | 2.11
134 | A20S | 3.18
135 | A20H | 2.42
136 | A20T | 2.21
137 | A20Q | 2.95
138 | A20G | 3.41
139 | A20K | 3.6
140 | A20F | 2.38
141 | A20W | 2.46
142 | A20V | 2.49
143 | A20E | 3.25
144 | A20R | 3.01
145 | A20N | 2.78
146 | A20I | 2.28

Row | Variant | protein stability index
147 | A20L | 2.09
148 | A20M | 2.13
149 | E22K | 2.08
150 | E22R | 2.38
151 | E22G | 2.05
152 | E22W | 1.97
153 | E22Y | 2.11
154 | E22S | 2.71
155 | E22Q | 2.24
156 | E22D | 2.26
157 | E22L | 2.97
158 | E22M | 1.89
159 | E22A | 2
160 | E22F | 1.65
161 | E22N | 2.56
162 | E22I | 1.76
163 | E22P | 2.81
164 | E22H | 2.37
165 | E22C | 1.93
166 | E22V | 2.2
167 | E22T | 2.08
